Test [1] deals with T1, human BAFF (10056-HNCH, Sino biological) (human, UniProt Q9Y275 134-285).
T1 construct: Bought protein
The experiment in a line: ELISA, BAFF coated, fusion protein titrated. As to the method: (§1) The binding activity of the antibodies or fusion proteins for BAFF, APRIL, and IL-12/23 p40 was assayed by the ELISA method (coating an antigen protein). The specific procedures were as follows:
(§2) A BAFF (Sino biological, 10056-HNCH), APRIL (R&D Systems, 5860-AP-010/CF), or IL-12/23 p40 (Sino biological, 10052-H08H) protein was diluted to 1 μg/mL with a PBS (BasalMedia, B320) buffer at pH 7.4, and added to a 96-well microplate (Corning, 3590) at 100 μL/well. The plate was incubated at 4° C. overnight. After the liquid was discarded, 300 μL of 5% skim milk (BD, 232100) diluted with PBS was added to each well for blocking, and the plate was incubated at 37° C. for 2 h. After the blocking was completed, the blocking solution was discarded, and the plate was washed 3 times with a PBST buffer (PBS at pH 7.4 containing 0.1% tween-20). 100 μL of test antibody or fusion protein solution diluted in a gradient was added to each well, and the plate was incubated at 37° C. for 1 h. After the incubation was completed, the plate was washed 3 times with PBST. […] The plate was washed 3 times with PBST. 100 μL of TMB chromogenic substrate (KPL, 5120-0077) was added to each well, and the plate was incubated at room temperature for 10-15 min. The reaction was stopped by adding 50 μL of 1 M H₂SO₄ to each well. The plate was read for absorbance values at 450 nm on a microplate reader, the binding curves of the antibodies to an antigen were fitted with software, and the EC₅₀ values were calculated.

Test [2] concerns the target T1, human BAFF (10056-HNCH, Sino biological). As to the kind of experiment: competition ELISA: biotin-labeled BAFF to coated BAFF-R. As for the experimental part:
(§3) The blocking activity of the antibodies and the fusion proteins for receptors and ligands such as BAFF/BAFF-R, BAFF/BCMA, BAFF/TACI, APRIL/BCMA, APRIL/TACI, and p40/IL-12R1 was assayed by the ELISA method. The specific procedures were as follows:
(§4) A receptor protein was diluted to 2 μg/mL with PBS at pH 7.4 (BasalMedia, B320) and added to a 96-well microplate (Corning, 3590) at 100 μL/well. The plate was incubated at 4° C. overnight. After the liquid was discarded, 200 μL of 1% Casein blocking solution (Thermo, 37528) was added to each well for blocking, and the plate was incubated at 37° C. for 2 h. After the blocking was completed, the blocking solution was discarded, and the plate was washed 3 times with a PBST buffer (PBS at pH 7.4 containing 0.1% tween-20) for later use. A biotin-labeled ligand protein at a fixed concentration was mixed with the antibody or fusion protein diluted in gradient, pre-incubated at 37° C. for 30 min, and added to a blocked microplate. The plate was incubated at 37° C. for 1.5 h. After the incubation was completed, the plate was washed 3 times with PBST. 100 μL of streptavidin-HRP (Invitrogen, 434323, diluted at a ratio of 1:4000) was added to each well, and the plate was incubated at 37° C. for 1 h. The supernatant was removed, and the plate was washed 3 times with PBST. 100 μL of TMB chromogenic substrate (KPL, 5120-0077) was added to each well, and the plate was incubated at room temperature for 10-15 min. The reaction was stopped by adding 50 μL of 1 M H₂SO₄ to each well. The plate was read for absorbance values at 450 nm on a microplate reader, the curves for the inhibition of the binding of the ligands to the receptors were fitted with software, and the IC₅₀ values were calculated.
For orientation: In an ELISA, binding on a coated surface is turned into a signal by an enzyme label.

Test [3] shares this target. The description is as above. As for the experimental part:
as §3, §4
This is another data set of the same source.

Test [4] shares this target. The experiment in a line: ELISA, BAFF coated, fusion protein titrated. As for the experimental part:
as §1, §2
This is another data set of the same source.

Test [5] has as its target T2, human APRIL (5860-AP-010/CF, R&D Systems) (human, UniProt O75888 115-250, limits assumed).
T2 construct: Bought protein
T2 sequence (looked up): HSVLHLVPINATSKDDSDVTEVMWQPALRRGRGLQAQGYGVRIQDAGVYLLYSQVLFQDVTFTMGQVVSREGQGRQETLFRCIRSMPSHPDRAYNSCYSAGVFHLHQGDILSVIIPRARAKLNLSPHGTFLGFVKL
As to the kind of experiment: SPR (Biacore), sample captured on Protein A, antigen flowed, 1:1 fit. As to the method:
A certain amount of test sample was subjected to affinity capture by a biosensor chip Protein A (GE, 29127556), then antigens at a series of concentration gradients were allowed to flow on the surface of the chip. The reaction signals were detected in real time by using Biacore (GE, 8K) to obtain association and dissociation curves. After the dissociation was completed for each cycle, the biochip was washed and regenerated with a 10 mM glycine-hydrochloric acid solution at pH 1.5 (GE, BR-1003-54). The experimental data were fitted using BIAevaluation version 4.1, GE software with a 1:1 model to obtain affinity values. The related antigen proteins used in this assay are as follows: human IL-23 (CT048-H08H, Sino biological), human IL-12 (CT050-H08H, Sino biological), human BAFF (10056-HNCH, Sino biological), human APRIL (5860-AP-010/CF, R&D Systems), cynomolgus monkey p40 (10215-CL, R&D Systems), cynomolgus monkey BAFF (BAF-CM412B, Kactus), cynomolgus monkey APRIL (APR-CM410B, Kactus), mouse BAFF (BAF-M521y, Acro Biosystems), and mouse APRIL (7907-AP/CF, R&D Systems).
For orientation: In SPR one partner is held on a chip, and binding of the other changes the refractive index at the surface.

Test [6] has as its target T1, human BAFF (10056-HNCH, Sino biological). The description is as above.

Substitutions are numbered along the chain they refer to. In names and notes the source's numbering stands. Like-named read-outs stand apart in the source and are kept apart here.

B1: TACI-18Fc (Fc fusion)
chain: CRKEQGKFYDHLLRDCISCASICGQHPKQCAYFCEDKTHTCPPCPAPEAEGAPSVFLFPPKPKDTLMISRTPEVTCVVVDVSHEDPEVKFNWYVDGVEVHNAKTKPREEQYNSTYRVVSVLTVLHQDWLNGKEYKCKVSNKALPSSIEKTISKAKGQPREPQVYTLPPSRDELTKNQVSLTCLVKGFYPSDIAVEWESNGQPENNYKTTPPVLDSDGSFFLYSKLTVDKSRWQQGNVFSCSVMHEALHNHYTQKSLSLSPGK
notes: Fused directly to Fc; two identical polypeptides
In test [1], B1 had an EC50 of 0.992 nM. In test [2], the IC50 worked out at 3.26 nM.

B2: TACI-10 Fc (Fc fusion)
chain: SLSCRKEQGKFYDHLLRDCISCASICGQHPKQCAYFCENKDKTHTCPPCPAPEAEGAPSVFLFPPKPKDTLMISRTPEVTCVVVDVSHEDPEVKFNWYVDGVEVHNAKTKPREEQYNSTYRVVSVLTVLHQDWLNGKEYKCKVSNKALPSSIEKTISKAKGQPREPQVYTLPPSRDELTKNQVSLTCLVKGFYPSDIAVEWESNGQPENNYKTTPPVLDSDGSFFLYSKLTVDKSRWQQGNVFSCSVMHEALHNHYTQKSLSLSPGK
notes: TACI-9 truncated at the C-terminus by 1 amino acid L, fused directly to Fc; two identical polypeptides
In turn, B2 returned a concentration for a half-maximal effect (EC50) in test [1] of 0.561 nM. The IC50 in test [3] turned out to be 2.7 nM.

B3: TACI-21Fc (Fc fusion)
chain: EQGKFYDHLLRDCISCASICGQHPKQCAYFCEDKTHTCPPCPAPEAEGAPSVFLFPPKPKDTLMISRTPEVTCVVVDVSHEDPEVKFNWYVDGVEVHNAKTKPREEQYNSTYRVVSVLTVLHQDWLNGKEYKCKVSNKALPSSIEKTISKAKGQPREPQVYTLPPSRDELTKNQVSLTCLVKGFYPSDIAVEWESNGQPENNYKTTPPVLDSDGSFFLYSKLTVDKSRWQQGNVFSCSVMHEALHNHYTQKSLSLSPGK
notes: as for B1
In test [1], B3 showed an EC50 of 9.8 nM. Besides, the IC50 in test [2] is 2520 nM.

B4: TACI-20Fc (Fc fusion)
chain: KEQGKFYDHLLRDCISCASICGQHPKQCAYFCEDKTHTCPPCPAPEAEGAPSVFLFPPKPKDTLMISRTPEVTCVVVDVSHEDPEVKFNWYVDGVEVHNAKTKPREEQYNSTYRVVSVLTVLHQDWLNGKEYKCKVSNKALPSSIEKTISKAKGQPREPQVYTLPPSRDELTKNQVSLTCLVKGFYPSDIAVEWESNGQPENNYKTTPPVLDSDGSFFLYSKLTVDKSRWQQGNVFSCSVMHEALHNHYTQKSLSLSPGK
notes: as for B1
Turning to B4, the EC50 in test [1] was found to be 7.19 nM. Also, in test [2], the IC50 is 2360 nM.

B5: TACI-9-10Fc (Fc fusion)
chain: SLSCREEQGEFYDHLLRDCISCASICGQHPKQCAYFCENKLDKTHTCPPCPAPEAEGAPSVFLFPPKPKDTLMISRTPEVTCVVVDVSHEDPEVKFNWYVDGVEVHNAKTKPREEQYNSTYRVVSVLTVLHQDWLNGKEYKCKVSNKALPSSIEKTISKAKGQPREPQVYTLPPSRDELTKNQVSLTCLVKGFYPSDIAVEWESNGQPENNYKTTPPVLDSDGSFFLYSKLTVDKSRWQQGNVFSCSVMHEALHNHYTQKSLSLSPGK
notes: TACI-9 with K6E and K10E, fused to Fc; two identical polypeptides
In the case of B5, the EC50 in test [4] is 0.12 nM. In test [5], this molecule showed a Kd of 0.0128 nM, a koff of 0.000112 s⁻¹ and a kon of 8.75e+06 M⁻¹ s⁻¹. In test [6], this molecule came in with a Kd of 0.081 nM, a koff of 1.89e-05 s⁻¹ and a kon of 234000 M⁻¹ s⁻¹.

B6: TACI-9-15Fc (Fc fusion)
chain: B5 chain with L2T, Y35A
notes: two identical polypeptides
In turn, B6 showed an EC50 in test [4] of 0.0869 nM. Besides, in test [5], binding was put at a Kd of 0.0125 nM, the koff turned out to be 9.6e-05 s⁻¹ and the kon worked out at 7.67e+06 M⁻¹ s⁻¹. In test [6], this molecule registered a Kd of 0.0773 nM, a koff of 2.12e-05 s⁻¹ and an on-rate constant (kon) of 274000 M⁻¹ s⁻¹.

B7: TACI-9-14Fc (Fc fusion)
chain: B5 chain with L2T, E6K, E10K, Y35A, F36Y
notes: two identical polypeptides
The molecule B7 returned an EC50 in test [4] of 0.223 nM.

B8: TACI-17Fc (Fc fusion)
chain: SCRKEQGKFYDHLLRDCISCASICGQHPKQCAYFCEDKTHTCPPCPAPEAEGAPSVFLFPPKPKDTLMISRTPEVTCVVVDVSHEDPEVKFNWYVDGVEVHNAKTKPREEQYNSTYRVVSVLTVLHQDWLNGKEYKCKVSNKALPSSIEKTISKAKGQPREPQVYTLPPSRDELTKNQVSLTCLVKGFYPSDIAVEWESNGQPENNYKTTPPVLDSDGSFFLYSKLTVDKSRWQQGNVFSCSVMHEALHNHYTQKSLSLSPGK
notes: as for B1
The molecule B8 displayed a concentration for a half-maximal effect (EC50) in test [1] of 0.996 nM. In addition, in test [2], the IC50 was 2.82 nM.

B9: TACI-19Fc (Fc fusion)
chain: RKEQGKFYDHLLRDCISCASICGQHPKQCAYFCEDKTHTCPPCPAPEAEGAPSVFLFPPKPKDTLMISRTPEVTCVVVDVSHEDPEVKFNWYVDGVEVHNAKTKPREEQYNSTYRVVSVLTVLHQDWLNGKEYKCKVSNKALPSSIEKTISKAKGQPREPQVYTLPPSRDELTKNQVSLTCLVKGFYPSDIAVEWESNGQPENNYKTTPPVLDSDGSFFLYSKLTVDKSRWQQGNVFSCSVMHEALHNHYTQKSLSLSPGK
notes: as for B1
With B9, in test [1], it took 4.99 nM to reach a half-maximal effect (EC50). Moreover, in test [2], the IC50 was 2220 nM.

B10: TACI-16Fc (Fc fusion)
chain: LSCRKEQGKFYDHLLRDCISCASICGQHPKQCAYFCEDKTHTCPPCPAPEAEGAPSVFLFPPKPKDTLMISRTPEVTCVVVDVSHEDPEVKFNWYVDGVEVHNAKTKPREEQYNSTYRVVSVLTVLHQDWLNGKEYKCKVSNKALPSSIEKTISKAKGQPREPQVYTLPPSRDELTKNQVSLTCLVKGFYPSDIAVEWESNGQPENNYKTTPPVLDSDGSFFLYSKLTVDKSRWQQGNVFSCSVMHEALHNHYTQKSLSLSPGK
notes: as for B1
Take B10: it took 0.599 nM to reach a half-maximal effect in test [1] (EC50). The IC50 in test [2] turned out to be 2.22 nM.

The EC50 is the concentration that produces a half-maximal response. Low values mean a more potent agent, high ones a less potent agent. One may read the IC50 as the concentration needed to halve the response being measured. What is called Kd is the concentration at which binding is half-saturated. One may read the koff as the rate constant with which the complex falls apart. Read a low koff as slow dissociation. One may read the kon as the rate constant with which the complex forms. Lower therefore signals slower complex formation.

For the origin of these results see patent US20240301031A1 (JIANGSU HENGRUI PHARMACEUTICALS, published 2024).
